From PMC3906126
pKd: −log10 of the molar value.

Tests used:
Assay in all cases: ITC
[1] = target: WW1 domain of WWOX (residues 16–50) (human) (UniProt Q9NZC7)
[2] = target: WW1–WW2 tandem module of WWOX (residues 16–91) (human) (UniProt Q9NZC7)
[3] = target: WW2W domain of WWOX (WW2 domain, residues 57–91, with the Y85W substitution) (human) (UniProt Q9NZC7)
Chain of WW2W domain of WWOX (WW2 domain, residues 57–91, with the Y85W substitution) (human) (Q9NZC7 57-91 Y85W): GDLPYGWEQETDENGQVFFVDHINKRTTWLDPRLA

Chain of WW1 domain of WWOX (residues 16–50) (human) (Q9NZC7 16-50): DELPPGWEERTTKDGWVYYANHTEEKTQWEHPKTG
Chain of WW1–WW2 tandem module of WWOX (residues 16–91) (human) (Q9NZC7 16-91): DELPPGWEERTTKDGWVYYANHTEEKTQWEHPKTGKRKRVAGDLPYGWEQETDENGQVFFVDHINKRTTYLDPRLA

Row | Substance | pKd [1] | dH [1] | pKd [2] | pKd [3] | dH [3]
1 | PY3_A+6 (ErbB4_PY3 peptide with alanine at position +6) | 3.87 | -4.78 kcal/mol | – | – | –
2 | PY3_A+5 (ErbB4_PY3 peptide with alanine at position +5) | 3.80 | -11.4 kcal/mol | – | – | –
3 | PY3_A+2 (ErbB4_PY3 peptide with alanine at position +2) | 3.54 | -3.63 kcal/mol | – | – | –
4 | PY3_A−1 (ErbB4_PY3 peptide with alanine at position −1) | 3.79 | -3.33 kcal/mol | – | – | –
5 | PY3_A−2 (ErbB4_PY3 peptide with alanine at position −2) | 3.82 | -6.19 kcal/mol | – | – | –
6 | PY3_A−3 (ErbB4_PY3 peptide with alanine at position −3) | 3.95 | -3.67 kcal/mol | – | – | –
7 | ErbB4_PY3 peptide (12-mer spanning the PY3 PPXY motif of the ICD of ErbB4) | 3.84 | -6.21 kcal/mol | 4.17 | 4.27 | -4.15 kcal/mol
8 | PY3_A+4 (ErbB4_PY3 peptide with alanine at position +4) | 3.56 | -4.02 kcal/mol | – | – | –
